Assay [1] deals with human FGFR1 (His-tagged FGFR1b-IIIb or FGFR1b-IIIc; isoform not told at that place) (human) (UniProt P11362). The experiment in a line: ELISA on coated human FGFR1b (IIIb or IIIc not told). (An ELISA detects its analyte on a solid surface through an enzyme-linked reagent.)
The target is the same in assay [2]. Kind of assay: ELISA on coated human FGFR1b (IIIb or IIIc not told), IgG1 format.
Assay [3] has as its target T1, FGFR1 D2 point mutant K60A (human), P11362.
T1 chain: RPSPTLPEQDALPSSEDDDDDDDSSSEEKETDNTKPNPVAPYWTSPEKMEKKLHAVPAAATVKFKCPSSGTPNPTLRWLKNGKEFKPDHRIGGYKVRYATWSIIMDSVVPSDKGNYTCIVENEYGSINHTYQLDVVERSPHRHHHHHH
The experiment in a line: SPR as in Example 1.8. Particulars: remark: other sources report otherwise.

Assay [4] addresses T2, FGFR1 D2 point mutant K63A (human), P11362.
T2 chain: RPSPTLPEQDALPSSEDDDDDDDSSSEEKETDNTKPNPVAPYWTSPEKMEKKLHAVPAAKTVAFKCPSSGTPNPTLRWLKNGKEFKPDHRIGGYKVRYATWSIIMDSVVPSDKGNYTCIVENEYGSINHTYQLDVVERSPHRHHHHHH
The experiment in a line: SPR as in Example 1.8. Particulars: remark: other sources report otherwise.

For assay [5], the target named is T3, FGFR1 D2 point mutant T61A (human), P11362.
T3 chain: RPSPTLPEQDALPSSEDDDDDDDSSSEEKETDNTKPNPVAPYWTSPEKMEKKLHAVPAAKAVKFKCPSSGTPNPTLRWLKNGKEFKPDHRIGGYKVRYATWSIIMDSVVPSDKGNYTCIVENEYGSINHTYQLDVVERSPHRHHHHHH
The experiment in a line: SPR as in Example 1.8. Particulars: remark: other sources report otherwise.

Assay [6] addresses T4, FGFR1 D2 point mutant K95A (human), P11362.
T4 chain: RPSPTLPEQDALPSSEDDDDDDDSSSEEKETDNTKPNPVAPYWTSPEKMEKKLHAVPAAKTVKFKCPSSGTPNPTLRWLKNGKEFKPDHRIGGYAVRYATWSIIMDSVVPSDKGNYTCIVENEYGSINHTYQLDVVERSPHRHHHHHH
Kind of assay: SPR as in Example 1.8. Particulars: remark: other sources report otherwise.

The target in another assay is huFGFR1a-IIIc (human) (UniProt P11362). Kind of assay: SPR (Biacore 4000), antibody captured, His-tagged FGFR1 injected; no unit in the table, nM inferred from paragraph 90.
For assay [7], the target named is T1, FGFR1 D2 point mutant K60A (human), …. Kind of assay: SPR; free energy change relative to wild-type D2. Conditions: remark: other sources report otherwise.
The target in assay [8] is T2, FGFR1 D2 point mutant K63A (human), …. The experiment in a line: SPR; free energy change relative to wild-type D2. Particulars: remark: other sources report otherwise. On the technique in general: In SPR one partner is held on a chip, and binding of the other changes the refractive index at the surface.
Assay [9] concerns the target T3, FGFR1 D2 point mutant T61A (human), …. Kind of assay: SPR; free energy change relative to wild-type D2. Particulars: remark: other sources report otherwise.
Assay [10] concerns the target T4, FGFR1 D2 point mutant K95A (human), …. Kind of assay: SPR; free energy change relative to wild-type D2. Particulars: remark: other sources report otherwise.

Chain of huFGFR1a-IIIc (human) (P11362 22-376): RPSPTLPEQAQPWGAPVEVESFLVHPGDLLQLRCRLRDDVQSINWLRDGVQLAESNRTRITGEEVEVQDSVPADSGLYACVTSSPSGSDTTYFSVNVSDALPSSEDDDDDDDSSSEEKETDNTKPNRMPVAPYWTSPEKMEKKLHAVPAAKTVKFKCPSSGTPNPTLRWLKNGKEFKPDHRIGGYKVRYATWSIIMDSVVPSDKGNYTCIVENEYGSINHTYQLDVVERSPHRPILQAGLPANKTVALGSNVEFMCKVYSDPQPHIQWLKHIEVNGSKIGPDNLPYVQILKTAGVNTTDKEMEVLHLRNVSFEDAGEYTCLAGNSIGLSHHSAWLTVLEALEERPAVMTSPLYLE

B1: mAb #D01 IgG1 (antibody, V domains shown)
VH: QVQLQESGPGLVKPSGTLSLTCAVSGGSISSNNWWSWVRQPPGKGLEWIGEIYHSGSTSYNPSLKSRVTISVDKSKNQFSLKLSSVTAADTAVYYCARATDWFDHWGQGTLVTVSS
VL: SYVLTQPPSVSVAPGQTARITCGGNNIGSESVHWYQQKPGQAPVLVVYDDSDRPSGIPERFSGSNSGNTATLTISRVEAGDEADYYCQVWDSTSDHRVFGGGTKLTVLG
One may read the EC50 as the midpoint of the concentration-response curve. In the case of B1, the EC50 in [1] was found to be 0.015 nM.

B2: #A08 IgG1 (standard IgG1 built from the #A08 lead heavy and light chains) (antibody, V domains shown)
VH: EVQLQESGPGLVKPSGTLSLTCAVSGGSISSNNWWSWVRQPPGKGLEWIGEIYHSGSTSYNPSLKSRVTISVDKSKNQFSLKLSSVTAADTAVYYCARGTDWFDPWGQGTLVTVSS
VL: SYVLTQPPSVSVAPGQTARITCGGNNIGSESVHWYQQKPGQAPVLVVYDDSDRPSGIPERFSGSNSGNTATLTISRVEAGDEADYYCQVWDSTSDHRVFGGGTKLTVLG
Consider B2, for which the EC50 in assay [2] was 0.008 nM.

B3: mAb #A08 (antibody, V domains shown)
VH: EVQLQESGPGLVKPSGTLSLTCAVSGGSISSNNWWSWVRQPPGKGLEWIGEIYHSGSTSYNPSLKSRVTISVDKSKNQFSLKLNSVTAADTAVYYCARGTDWFDPWGQGTLVTVSS
VL: QAVLTQPPSVSVAPGQTARITCGGNNIGSESVHWYQQKPGQAPVLVVYDDSDRPSGIPERFSGSNSGNTATLTISRVEAGDEADYYCQVWDSTSDHRVFGGGTKLTVL
The Kd is the concentration at which binding is half-saturated. High values mean lower affinity, low ones higher affinity. Regarding B3, the Kd in [3] came out at 13.4 nM; in [4], 13.9 nM; in [5], 5.89 nM; in [6], 5.86 nM; with huFGFR1a-IIIc (human) it was 0.7 nM. Besides, the ΔΔGmut in assay [7] stood at 2.51 kcal/mol; in assay [8], 2.53 kcal/mol; in assay [9], 2.02 kcal/mol; in [10], 2.02 kcal/mol.

For the origin of these results see patent US20190367620A1.
